In publication PMC5071332 one finds percentage of cells exhibiting the binding of Ig-PTPδ data, which are given here for one substance.

Holding throughout (test): immunostaining of cells or tissue; cell-surface binding assay: HEK293T cells expressing WT or mutant HA-tagged Slitrks incubated with 10 μg/ml control IgC or Ig-PTPδ; immunofluorescence imaging of Ig-fusion proteins and HA; percentage of cells exhibiting binding
For assay [1], the target named is HA-tagged Slitrk4[V206I] (human) (UniProt Q8IW52).
Assay [2] concerns the target HA-tagged Slitrk2[R32L] (human) (UniProt Q9H156).
The target of assay [3] is HA-tagged Slitrk2[S549F] (human) (UniProt Q9H156).
The target in assay [4] is HA-tagged full-length Slitrk4 wild type (human) (UniProt Q8IW52).
The target in assay [5] is HA-tagged Slitrk1[T418S] (human) (UniProt Q96PX8).
Assay [6] deals with HA-tagged Slitrk1[N400I] (human) (UniProt Q96PX8).
Assay [7] has as its target HA-tagged Slitrk2[S601P] (human) (UniProt Q9H156).
For assay [8], the target named is HA-tagged Slitrk2[L626F] (human) (UniProt Q9H156).
In assay [9] the target is HA-tagged full-length Slitrk2 wild type (human) (UniProt Q9H156).
In assay [10] the target is HA-tagged Slitrk4[I578V] (human) (UniProt Q8IW52).
For assay [11], the target named is HA-tagged Slitrk2[V89M] (human) (UniProt Q9H156).
Assay [12] addresses HA-tagged Slitrk1[R584K] (human) (UniProt Q96PX8).
The target in assay [13] is HA-tagged Slitrk1[S593G] (human) (UniProt Q96PX8).
For assay [14], the target named is HA-tagged full-length Slitrk1 wild type (human) (UniProt Q96PX8).

Turning to “recombinant Ig-fusion protein of PTPδ (IgC-PTPδ) (from UniProt P23468 21-1912) (Fc fusion)”, the percentage of cells exhibiting the binding of Ig-PTPδ in [1] stood at 24%; in assay [2], 82%; in assay [3] it was 68.8%; in assay [4] it was 81%; in [5], 41%; in assay [6], 32%. Also, the percentage of cells exhibiting the binding of Ig-PTPδ in assay [7] is 80%; in [8], 76%; in [9], 71%; in assay [10] it was 22.2%; in assay [11] it was 81%; in assay [12], 62%. Moreover, the percentage of cells exhibiting the binding of Ig-PTPδ in [13] is 68.7%; in assay [14] it was 66.7%.
